Where a chain is given by its changes, count along the chain named.
Columns and labels:
[1] = molecular target: T1, histidine-tagged human Siglec-7 (NovoProtein) (human, UniProt Q9Y286 19-353); experiment: BLI, antibody captured
T1 construct: Bought protein; also called recombinant human Siglec-7; recombinant Siglec-7; not shown: histidine tag
Protocol: In this assay, the humanized antibodies were compared directly to S7AB. Briefly, the antibodies were captured on anti-human or anti-mouse IgG Fc Biosensors (Pall ForteBio). Varying concentrations (0-100 nM) of histidine-tagged human Siglec-7 (NovoProtein) were then bound to the captured anti-Siglec-7 surface (200 s association time, 900 s dissociation time). Multi-concentration kinetic analysis was performed using a 1:1 interaction model to extract association and dissociation rate constants (kₐ and kd, respectively) for each antibody. Apparent affinity constants (KD) were calculated from the ratio kd/kₐ.
The affinities of S7AB-H8 and variants S7AB-H8.1 through S7AB-H8.45 for human Siglec-7 were measured by BioLayer Interferometry according to the method described in Example 1 above.

[2] = molecular target: human Siglec-7 on primary human monocyte-derived dendritic cells (human, UniProt Q9Y286 19-467); experiment: cell-based or functional assay
Chain of human Siglec-7 on primary human monocyte-derived dendritic cells (Q9Y286 19-467): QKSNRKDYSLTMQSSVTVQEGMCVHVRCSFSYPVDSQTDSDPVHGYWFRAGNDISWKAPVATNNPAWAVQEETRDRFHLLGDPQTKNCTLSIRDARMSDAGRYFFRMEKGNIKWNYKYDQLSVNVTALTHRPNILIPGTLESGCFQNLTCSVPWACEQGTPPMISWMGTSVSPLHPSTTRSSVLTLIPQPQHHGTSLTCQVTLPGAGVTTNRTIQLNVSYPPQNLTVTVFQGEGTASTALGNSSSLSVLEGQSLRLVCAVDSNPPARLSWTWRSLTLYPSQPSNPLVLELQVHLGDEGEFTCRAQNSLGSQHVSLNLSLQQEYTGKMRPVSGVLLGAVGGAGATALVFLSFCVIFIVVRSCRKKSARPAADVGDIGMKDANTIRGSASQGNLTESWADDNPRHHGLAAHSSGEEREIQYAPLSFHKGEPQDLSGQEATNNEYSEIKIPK

T1 sequence (Q9Y286 19-353 limits assumed): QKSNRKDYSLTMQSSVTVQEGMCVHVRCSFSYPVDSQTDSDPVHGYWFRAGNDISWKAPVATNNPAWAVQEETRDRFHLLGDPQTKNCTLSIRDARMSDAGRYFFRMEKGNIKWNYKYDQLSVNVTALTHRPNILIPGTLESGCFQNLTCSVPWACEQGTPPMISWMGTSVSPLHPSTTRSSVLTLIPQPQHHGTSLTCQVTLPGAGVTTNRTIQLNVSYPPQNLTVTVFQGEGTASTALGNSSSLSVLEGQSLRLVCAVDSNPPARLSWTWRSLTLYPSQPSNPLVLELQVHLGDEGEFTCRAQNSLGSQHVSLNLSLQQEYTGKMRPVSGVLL

B1: S7AB-H8.1 (antibody, V domains shown)
VH: QVQLVQSGAEVKKPGASVKVSCKASGYAFTETWMNWVRQAPGQGLEWIGRIFPGLGHTNYAQKFQGRATLTEDTSTSTAYMELSSLRSEDTAVYYCARDYSDYYFDYWGQGTLVTVSS
VL: DIQMTQSPSSLSASVGDRVTITCRGSQDINTYLNWYQQKPGKAPKLLIYYTSRLHSGVPSRFSGSGSGTDYTLTISSLQPEDFATYYCQQGNLLPWTFGQGTKLEIK
Kd [1]: 0.574 nM | fold improvement over S7AB-H8 [1]: 1.8 fold | koff [1]: 7.05e-05 s⁻¹ | kon [1]: 123000 M⁻¹ s⁻¹ | Fold increase in potency compared to AB-H8 [2]: 2.9 fold | Fold increase in potency compared to Chimeric Ab [2]: 8.7 fold | Maximal downregulation (% Siglec-7 remaining) [2]: 10.9% | Receptor downregulation, (EC50) (pM) [2]: 117 pM

B2: S7AB-H8.45.2 (antibody, V domains shown)
VH: B1 VH with T32A, P41R, G44R, L55Y
VL: B1 VL with L93I
Fold increase in potency compared to AB-H8 [2]: 3.3 fold | Fold increase in potency compared to Chimeric Ab [2]: 9.9 fold | Maximal downregulation (% Siglec-7 remaining) [2]: 8.7% | Receptor downregulation, (EC50) (pM) [2]: 109 pM

B3: S7AB-H8.14 (antibody, V domains shown)
VH: B1 VH with E31A, T32A
VL: B1 VL with Q90G, L93T
Kd [1]: 54.1 nM | fold improvement over S7AB-H8 [1]: 0.02 fold | koff [1]: 0.000176 s⁻¹ | kon [1]: 3260 M⁻¹ s⁻¹ | Fold increase in potency compared to AB-H8 [2]: 0.2 fold | Fold increase in potency compared to Chimeric Ab [2]: 0.5 fold | Maximal downregulation (% Siglec-7 remaining) [2]: 45.7% | Receptor downregulation, (EC50) (pM) [2]: 1950 pM

B4: S7AB-H8.12 (antibody, V domains shown)
VH: B1 VH with E31M, T32A, L55Y
VL: B1 VL with Q90G, L93T
Kd [1]: 46.3 nM | fold improvement over S7AB-H8 [1]: 0.02 fold | koff [1]: 0.000155 s⁻¹ | kon [1]: 3350 M⁻¹ s⁻¹ | Fold increase in potency compared to AB-H8 [2]: 0.01 fold | Fold increase in potency compared to Chimeric Ab [2]: 0.04 fold | Maximal downregulation (% Siglec-7 remaining) [2]: 61.3% | Receptor downregulation, (EC50) (pM) [2]: 25400 pM

B5: S7AB-H8.11 (antibody, V domains shown)
VH: B1 VH
VL: B1 VL with Q90G, L93T
Kd [1]: 124 nM | fold improvement over S7AB-H8 [1]: 0.01 fold | koff [1]: 0.000388 s⁻¹ | kon [1]: 3140 M⁻¹ s⁻¹ | Fold increase in potency compared to AB-H8 [2]: 0.05 fold | Fold increase in potency compared to Chimeric Ab [2]: 0.1 fold | Maximal downregulation (% Siglec-7 remaining) [2]: 74.7% | Receptor downregulation, (EC50) (pM) [2]: 7140 pM

B6: S7AB-H8.9 (antibody, V domains shown)
VH: B1 VH with E31A, T32A
VL: B1 VL with L93T, L94K
Kd [1]: 0.527 nM | fold improvement over S7AB-H8 [1]: 2 fold | koff [1]: 4.82e-05 s⁻¹ | kon [1]: 91400 M⁻¹ s⁻¹ | Fold increase in potency compared to AB-H8 [2]: 2.9 fold | Fold increase in potency compared to Chimeric Ab [2]: 8.8 fold | Maximal downregulation (% Siglec-7 remaining) [2]: 3.1% | Receptor downregulation, (EC50) (pM) [2]: 116 pM

B7: S7AB-H8.3 (antibody, V domains shown)
VH: B1 VH with E31G, T32Y
VL: B1 VL
Kd [1]: 0.294 nM | fold improvement over S7AB-H8 [1]: 3.6 fold | koff [1]: 6.05e-05 s⁻¹ | kon [1]: 206000 M⁻¹ s⁻¹ | Fold increase in potency compared to AB-H8 [2]: 3.8 fold | Fold increase in potency compared to Chimeric Ab [2]: 11.5 fold | Maximal downregulation (% Siglec-7 remaining) [2]: 20.1% | Receptor downregulation, (EC50) (pM) [2]: 89.2 pM

B8: S7AB-H8.8 (antibody, V domains shown)
VH: B1 VH with E31G, T32Y
VL: B1 VL with L93T, L94K
Kd [1]: 0.371 nM | fold improvement over S7AB-H8 [1]: 2.8 fold | koff [1]: 6.33e-05 s⁻¹ | kon [1]: 171000 M⁻¹ s⁻¹ | Fold increase in potency compared to AB-H8 [2]: 3.8 fold | Fold increase in potency compared to Chimeric Ab [2]: 11.4 fold | Maximal downregulation (% Siglec-7 remaining) [2]: 19.2% | Receptor downregulation, (EC50) (pM) [2]: 89.8 pM

B9: S7AB-H8.6 (antibody, V domains shown)
VH: B1 VH
VL: B1 VL with L93T, L94K
Kd [1]: 2.24 nM | fold improvement over S7AB-H8 [1]: 0.5 fold | koff [1]: 5.71e-05 s⁻¹ | kon [1]: 25500 M⁻¹ s⁻¹ | Fold increase in potency compared to AB-H8 [2]: 2.2 fold | Fold increase in potency compared to Chimeric Ab [2]: 6.6 fold | Maximal downregulation (% Siglec-7 remaining) [2]: 7.2% | Receptor downregulation, (EC50) (pM) [2]: 154 pM

B10: S7AB-H8.2 (antibody, V domains shown)
VH: B1 VH with E31M, T32A, L55Y
VL: B1 VL
Kd [1]: 0.227 nM | fold improvement over S7AB-H8 [1]: 4.6 fold | koff [1]: 3.23e-05 s⁻¹ | kon [1]: 142000 M⁻¹ s⁻¹ | Fold increase in potency compared to AB-H8 [2]: 3.9 fold | Fold increase in potency compared to Chimeric Ab [2]: 11.8 fold | Maximal downregulation (% Siglec-7 remaining) [2]: 3.3% | Receptor downregulation, (EC50) (pM) [2]: 87 pM

B11: S7AB-H8.4 (antibody, V domains shown)
VH: B1 VH with E31A, T32A
VL: B1 VL
Kd [1]: 0.214 nM | fold improvement over S7AB-H8 [1]: 4.9 fold | koff [1]: 3.15e-05 s⁻¹ | kon [1]: 147000 M⁻¹ s⁻¹ | Fold increase in potency compared to AB-H8 [2]: 4.3 fold | Fold increase in potency compared to Chimeric Ab [2]: 12.9 fold | Maximal downregulation (% Siglec-7 remaining) [2]: 4.5% | Receptor downregulation, (EC50) (pM) [2]: 79.5 pM

B12: S7AB-H8.7 (antibody, V domains shown)
VH: B1 VH with E31M, T32A, L55Y
VL: B1 VL with L93T, L94K
Kd [1]: 0.62 nM | fold improvement over S7AB-H8 [1]: 1.7 fold | koff [1]: 4.19e-05 s⁻¹ | kon [1]: 67600 M⁻¹ s⁻¹ | Fold increase in potency compared to AB-H8 [2]: 4 fold | Fold increase in potency compared to Chimeric Ab [2]: 12.1 fold | Maximal downregulation (% Siglec-7 remaining) [2]: 2.1% | Receptor downregulation, (EC50) (pM) [2]: 84.7 pM

B13: S7AB-H8.10 (antibody, V domains shown)
VH: B1 VH with T32A, L55Y
VL: B1 VL with L93T, L94K
Kd [1]: 1.62 nM | fold improvement over S7AB-H8 [1]: 0.6 fold | koff [1]: 8.14e-05 s⁻¹ | kon [1]: 50400 M⁻¹ s⁻¹ | Fold increase in potency compared to AB-H8 [2]: 1.7 fold | Fold increase in potency compared to Chimeric Ab [2]: 5.2 fold | Maximal downregulation (% Siglec-7 remaining) [2]: 7% | Receptor downregulation, (EC50) (pM) [2]: 197 pM

B14: S7AB-H8.13 (antibody, V domains shown)
VH: B1 VH with E31G, T32Y
VL: B1 VL with Q90G, L93T
Kd [1]: 35.7 nM | fold improvement over S7AB-H8 [1]: 0.03 fold | koff [1]: 0.000303 s⁻¹ | kon [1]: 8500 M⁻¹ s⁻¹ | Fold increase in potency compared to AB-H8 [2]: 0.1 fold | Fold increase in potency compared to Chimeric Ab [2]: 0.5 fold | Maximal downregulation (% Siglec-7 remaining) [2]: 43.3% | Receptor downregulation, (EC50) (pM) [2]: 2270 pM

B15: S7AB-H8.5 (antibody, V domains shown)
VH: B1 VH with T32A, L55Y
VL: B1 VL
Kd [1]: 0.351 nM | fold improvement over S7AB-H8 [1]: 3 fold | koff [1]: 4.08e-05 s⁻¹ | kon [1]: 116000 M⁻¹ s⁻¹ | Fold increase in potency compared to AB-H8 [2]: 3.9 fold | Fold increase in potency compared to Chimeric Ab [2]: 11.8 fold | Maximal downregulation (% Siglec-7 remaining) [2]: 9.5% | Receptor downregulation, (EC50) (pM) [2]: 87 pM

B16: S7AB chimeric antibody (antibody, V domains shown)
VH: QVHLQQSGPELVKPGASVKISCKASGYAFTNCWMNWVRQRPGKGLDWIGRIFPGNGHTNYSGKFKDKATLTEDKSSSTAYMQLSSLTSEDSAVYFCARDYSDYYFDYWGQGTTLTVSS
VL: DVQMTQTTSSLSASLGDRVTISCRASQDINTYLNWYQQKPDGTVKLLIYYTSRLHSGVPSRFSGSGSGTDYSLTISNLEQEDIATYFCQQGNTLPWTFGGGTKLEIK
Maximal downregulation (% Siglec-7 remaining) [2]: 28.6% | Receptor downregulation, (EC50) (pM) [2]: 1024 pM
